From patent publication US20120214173A1, “Methods of Identifying Modulators of an Ehd Polypeptide” (priority 2007, published 2012)
Entries after “also recorded” stand apart in the source; their conditions may differ.

Experiments:
[1] = target: T1, EHD2 (Mus musculus, UniProt Q8BH64); experiment: Multiple turnover ATPase assay (nucleotide hydrolysis by HPLC) with or without Folch liposomes; format: biochemical; settings: presence or absence of Folch liposomes
T1 construct: Mouse EHD2 full-length protein and all mutants were expressed as N-terminal His-fusions followed by a PreScission cleavage site; His (N, cleaved yes); made in house; host or cells: Escherichia coli BL21 DE3 Rosetta
T1 sequence (Q8BH64 1-543): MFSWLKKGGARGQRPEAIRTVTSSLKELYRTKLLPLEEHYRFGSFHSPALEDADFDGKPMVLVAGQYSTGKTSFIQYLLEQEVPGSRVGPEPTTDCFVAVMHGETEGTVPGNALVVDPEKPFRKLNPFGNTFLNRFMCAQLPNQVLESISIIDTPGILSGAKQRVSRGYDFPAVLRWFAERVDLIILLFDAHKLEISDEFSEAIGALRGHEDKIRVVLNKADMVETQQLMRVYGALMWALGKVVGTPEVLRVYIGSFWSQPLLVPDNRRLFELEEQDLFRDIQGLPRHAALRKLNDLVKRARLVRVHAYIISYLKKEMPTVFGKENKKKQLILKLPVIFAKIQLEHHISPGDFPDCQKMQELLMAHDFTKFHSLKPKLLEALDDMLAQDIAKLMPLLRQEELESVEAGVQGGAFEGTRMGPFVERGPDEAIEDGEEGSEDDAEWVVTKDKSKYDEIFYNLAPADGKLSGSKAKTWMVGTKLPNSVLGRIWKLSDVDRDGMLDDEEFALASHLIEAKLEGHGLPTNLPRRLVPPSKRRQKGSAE
Procedure: (§1) Amino acid numbering corresponds to mouse EHD2. b, EHD2 binds to adenine nucleotides, as determined by ITC. For clarity, ΔΔH=ΔHn−ΔH1 is plotted. […] Images were acquired close to the basal cell surface. f, Nucleotide hydrolysis was measured by HPLC in the absence (empty symbols) or presence of Folch liposomes (filled symbols). Data represent mean and standard deviation for two (intrinisic reactions) or three (stimulated reactions) independent experiments.
ITC measurements were performed at 10° C. in 20 mM HEPES (pH 7.5), 300 mM NaCl, 2 mM MgCl2. Liposome binding assays were performed as described previously (www.endocytosis.org). Multiple turnover ATPase assays were performed in 20 mM HEPES (pH 7.5), 135 mM NaCl, 15 mM KCl, 1 mM MgCl2 at 30° C. with 10 μM EHD2 (or mutants) as enzyme and 100 μM ATP as substrate, in the absence or presence of 1 mg/ml Folch liposomes (Sigma-Aldrich).
Reactions were started by the addition of the protein to the final reaction mix and nucleotide hydrolysis was followed using standard HPLC measurement^27. Initial rates were determined by applying a linear fit to data points up to 40% nucleotide hydrolysis. For electron microscopic studies, 2.5 μM EHD2 in 20 mM HEPES (pH 7.5), 150 mM NaCl, 1 mM MgCl2 was incubated for 15 min at 25° C. in the presence of 1 mM nucleotide and 0.05 mg/ml (final concentration) of the indicated liposomes. Samples were spotted on carbon-coated copper grids (Canemco and Marivac) and negatively stained with 2% uranyl acetate.
We next monitored the effect of membrane-binding on the ATPase activity of. EHD2 under multiple-turnover conditions (10-fold excess of ATP over EHD2), in the presence and absence of Folch liposoines (FIG. 1f). The intrinsic/background ATPase activity is extremely slow (kobs=0.7 h^−1) but is stimulated 8-fold in the presence of Folch or PS liposomes (kobs=5.6 h^−1).

[2] = target: Q8BH64
[3] = system: HeLa cells; experiment: Over-expression of EGFP-tagged EHD2 and mutants in HeLa cells (confocal / live imaging); format: cell-based; settings: 24 h after transfection, fixed
Procedure: as §1
Nucleotide hydrolysis was measured as described in FIG. 1f. In vitro tubulation activity of PS liposomes was analysed as described in FIG. 1d. f, EGFP-tagged mutants were over-expressed in HeLa cells. […] For each construct, three independent experiments with ≈50 cells/experiments were analysed.
Ultracentrifugation. Sedimentation velocity experiments were performed in a Beckman Optima XLA ultracentrifuge, using an An-60Ti rotor. Centrifugation was at 50,000 rev×min and 5° C. at an EHD2 concentration of 15 μM, with scans as fast as possible (˜1.5 min intervals). The data were analysed using DCDT+ v.2^44,45, with the partial specific volume for the protein (from the amino acid composition) and solvent density and viscosity calculated using Sednterp^46. Selected scans (at equal, ˜15 min intervals), and of g(s20,w) (the amount of material sedimenting between s20,w and (s20,w+δs)) and also the residuals for fitting the data with DCDT+, were plotted with the program profit v.5.6.7 (Quantum soft, Switzerland). Cell biology. N-terminal EGFP-tagged EHD2 and all mutants were over-expressed in HeLa cells from the pEGFP-C3 vector (Clontech). HeLa cells were grown as per ECACC guidelines with 10% fetal bovine serum and transfected using Genejuice (Novagen) for transient protein expression. 24 h after transfection, cells were fixed for 10 min at 37° C. in 3% paraformaldehyde and mounted. All confocal images were taken sequentially using a BioRad Radiance system and LaserSharp software (Biorad). For real-time microscopy, transfected cells on glass-bottom Petri dishes (WillCo Wells BV, Amsterdam) were washed with 25 mM HEPES (pH 7.5), 125 mM NaCl, 5 mM KCl, 10 mM D-glucose, 1 mM MgCl2, 2 mM CaCl), and epifluorescence images were taken using an Olympus IX70 microscope (Southhall, UK) and Argon laser (Melles Griot, Carlsbad, Calif.) with a Princeton instruments (Trenton, N.J.) cooled I-PentaMAX camera with MetaMorph software (Universal imaging).
EHD2 wild-type was over-expressed in HeLa cells for 24 h and imaged by EPI-fluorescence for approximately 30 min.
EHD2 T94A was over-expressed in HeLa cells for 24 h and imaged by EPI-fluorescence for approximately 30 min. […] EHD2 I157Q was over-expressed in HeLa cells for 24 h and imaged by EPI-fluorescence for approximately 30 min.

Nc1nc2c(ncn2[C@@H]2O[C@H](COP(=O)(O)OP(=O)(O)OP(=O)(O)O)[C@@H](O)[C@H]2O)c(=O)[nH]1 [GTP, reference compound]
GTP hydrolysis by EHD2 (in words) [1]: not stimulated; also recorded: not hydrolysed

B1: EHD2 E91Q (protein)
chain: MFSWLKKGGARGQRPEAIRTVTSSLKELYRTKLLPLEEHYRFGSFHSPALEDADFDGKPMVLVAGQYSTGKTSFIQYLLEQEVPGSRVGPQPTTDCFVAVMHGETEGTVPGNALVVDPEKPFRKLNPFGNTFLNRFMCAQLPNQVLESISIIDTPGILSGAKQRVSRGYDFPAVLRWFAERVDLIILLFDAHKLEISDEFSEAIGALRGHEDKIRVVLNKADMVETQQLMRVYGALMWALGKVVGTPEVLRVYIGSFWSQPLLVPDNRRLFELEEQDLFRDIQGLPRHAALRKLNDLVKRARLVRVHAYIISYLKKEMPTVFGKENKKKQLILKLPVIFAKIQLEHHISPGDFPDCQKMQELLMAHDFTKFHSLKPKLLEALDDMLAQDIAKLMPLLRQEELESVEAGVQGGAFEGTRMGPFVERGPDEAIEDGEEGSEDDAEWVVTKDKSKYDEIFYNLAPADGKLSGSKAKTWMVGTKLPNSVLGRIWKLSDVDRDGMLDDEEFALASHLIEAKLEGHGLPTNLPRRLVPPSKRRQKGSAE
assembly-stimulated ATP hydrolysis [2]: all mutants showed reduced or completely abolished assembly-stimulated ATP hydrolysis

B2: K327D: EHD2 polybasic cluster mutant (protein, UniProt Q8BH64 1-543, looked up, variant K327D)
EH domain-containing protein 2: MFSWLKKGGARGQRPEAIRTVTSSLKELYRTKLLPLEEHYRFGSFHSPALEDADFDGKPMVLVAGQYSTGKTSFIQYLLEQEVPGSRVGPEPTTDCFVAVMHGETEGTVPGNALVVDPEKPFRKLNPFGNTFLNRFMCAQLPNQVLESISIIDTPGILSGAKQRVSRGYDFPAVLRWFAERVDLIILLFDAHKLEISDEFSEAIGALRGHEDKIRVVLNKADMVETQQLMRVYGALMWALGKVVGTPEVLRVYIGSFWSQPLLVPDNRRLFELEEQDLFRDIQGLPRHAALRKLNDLVKRARLVRVHAYIISYLKKEMPTVFGKENDKKQLILKLPVIFAKIQLEHHISPGDFPDCQKMQELLMAHDFTKFHSLKPKLLEALDDMLAQDIAKLMPLLRQEELESVEAGVQGGAFEGTRMGPFVERGPDEAIEDGEEGSEDDAEWVVTKDKSKYDEIFYNLAPADGKLSGSKAKTWMVGTKLPNSVLGRIWKLSDVDRDGMLDDEEFALASHLIEAKLEGHGLPTNLPRRLVPPSKRRQKGSAE
distribution of EGFP-tagged protein over-expressed in HeLa cells [3]: completely cytoplasmic distribution

B3: K324D: EHD2 polybasic cluster mutant (protein, UniProt Q8BH64 1-543, looked up, variant K324D)
EH domain-containing protein 2: MFSWLKKGGARGQRPEAIRTVTSSLKELYRTKLLPLEEHYRFGSFHSPALEDADFDGKPMVLVAGQYSTGKTSFIQYLLEQEVPGSRVGPEPTTDCFVAVMHGETEGTVPGNALVVDPEKPFRKLNPFGNTFLNRFMCAQLPNQVLESISIIDTPGILSGAKQRVSRGYDFPAVLRWFAERVDLIILLFDAHKLEISDEFSEAIGALRGHEDKIRVVLNKADMVETQQLMRVYGALMWALGKVVGTPEVLRVYIGSFWSQPLLVPDNRRLFELEEQDLFRDIQGLPRHAALRKLNDLVKRARLVRVHAYIISYLKKEMPTVFGDENKKKQLILKLPVIFAKIQLEHHISPGDFPDCQKMQELLMAHDFTKFHSLKPKLLEALDDMLAQDIAKLMPLLRQEELESVEAGVQGGAFEGTRMGPFVERGPDEAIEDGEEGSEDDAEWVVTKDKSKYDEIFYNLAPADGKLSGSKAKTWMVGTKLPNSVLGRIWKLSDVDRDGMLDDEEFALASHLIEAKLEGHGLPTNLPRRLVPPSKRRQKGSAE
distribution of EGFP-tagged protein over-expressed in HeLa cells [3]: completely cytoplasmic distribution

B4: EHD2 K193D (protein)
chain: MFSWLKKGGARGQRPEAIRTVTSSLKELYRTKLLPLEEHYRFGSFHSPALEDADFDGKPMVLVAGQYSTGKTSFIQYLLEQEVPGSRVGPEPTTDCFVAVMHGETEGTVPGNALVVDPEKPFRKLNPFGNTFLNRFMCAQLPNQVLESISIIDTPGILSGAKQRVSRGYDFPAVLRWFAERVDLIILLFDAHDLEISDEFSEAIGALRGHEDKIRVVLNKADMVETQQLMRVYGALMWALGKVVGTPEVLRVYIGSFWSQPLLVPDNRRLFELEEQDLFRDIQGLPRHAALRKLNDLVKRARLVRVHAYIISYLKKEMPTVFGKENKKKQLILKLPVIFAKIQLEHHISPGDFPDCQKMQELLMAHDFTKFHSLKPKLLEALDDMLAQDIAKLMPLLRQEELESVEAGVQGGAFEGTRMGPFVERGPDEAIEDGEEGSEDDAEWVVTKDKSKYDEIFYNLAPADGKLSGSKAKTWMVGTKLPNSVLGRIWKLSDVDRDGMLDDEEFALASHLIEAKLEGHGLPTNLPRRLVPPSKRRQKGSAE
assembly-stimulated ATP hydrolysis [2]: all mutants showed reduced or completely abolished assembly-stimulated ATP hydrolysis

B5: K329D: EHD2 polybasic cluster mutant (protein, UniProt Q8BH64 1-543, looked up, variant K329D)
EH domain-containing protein 2: MFSWLKKGGARGQRPEAIRTVTSSLKELYRTKLLPLEEHYRFGSFHSPALEDADFDGKPMVLVAGQYSTGKTSFIQYLLEQEVPGSRVGPEPTTDCFVAVMHGETEGTVPGNALVVDPEKPFRKLNPFGNTFLNRFMCAQLPNQVLESISIIDTPGILSGAKQRVSRGYDFPAVLRWFAERVDLIILLFDAHKLEISDEFSEAIGALRGHEDKIRVVLNKADMVETQQLMRVYGALMWALGKVVGTPEVLRVYIGSFWSQPLLVPDNRRLFELEEQDLFRDIQGLPRHAALRKLNDLVKRARLVRVHAYIISYLKKEMPTVFGKENKKDQLILKLPVIFAKIQLEHHISPGDFPDCQKMQELLMAHDFTKFHSLKPKLLEALDDMLAQDIAKLMPLLRQEELESVEAGVQGGAFEGTRMGPFVERGPDEAIEDGEEGSEDDAEWVVTKDKSKYDEIFYNLAPADGKLSGSKAKTWMVGTKLPNSVLGRIWKLSDVDRDGMLDDEEFALASHLIEAKLEGHGLPTNLPRRLVPPSKRRQKGSAE
distribution of EGFP-tagged protein over-expressed in HeLa cells [3]: completely cytoplasmic distribution
